The results in this text go back to paper PMC2064162 (The Journal of Cell Biology, 2006).

In this assay the target is Sar1p (yeast, UniProt P20606 1-190). Briefly: pull-down.
Chain of Sar1p (P20606 whole entry): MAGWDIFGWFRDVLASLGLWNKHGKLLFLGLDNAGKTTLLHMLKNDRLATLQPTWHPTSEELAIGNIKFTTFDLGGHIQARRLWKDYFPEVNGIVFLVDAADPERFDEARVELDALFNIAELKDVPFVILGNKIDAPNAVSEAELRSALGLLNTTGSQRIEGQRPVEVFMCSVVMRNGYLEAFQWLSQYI

Turning to MRRRSRC [GalNAcT2 cytoplasmic domain peptide (wild type, MRRRSRC)], the binding result is “binds”.
